According to the nanobody polyreactivity screen of Harvey et al. (2022):

experiment: yeast display, Sf9 membrane polyspecificity reagent, FACS + sequencing; frameworks hold sequencing errors
Method in brief: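 Genes from sorted yeast were amplified by colony PCR, read by MiSeq 2 × 250 sequencing and filtered on CDR length. These cells carried a synthetic nanobody library in Saccharomyces cerevisiae BJ5465 and were sorted by FACS into low and high (top ~1%) gates on anti-HA and streptavidin fluorescence. Polyreactivity is labelled according to the gate of origin.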

Row | Sequence | polyreactivity (PSR sort gate)
1 | QVQLVESGGGLVQAGGSLRLSCAASGGIFSYAMGWYRQAPGKERELVADINSDGSTTYADSVKGRFTISRDNAKNTVYLQMNSLKPEDTAVYYCAVDVSVNWPLLERYEYWGQGTQVTVSS | low polyreactivity
2 | QVQLVESGGGLVQAGGSLRLSCAASGGIFSYYAMGWYRQAPGKEREFVAAIDWGGGSTYYADSVKGRFTISRDNAKNTVYLQMNSLKPEDTAVYYCAAEIYPIGWDDYDYWGQGTQVTVSS | low polyreactivity
3 | QVQLVESGGGLVQAGGSLRLSCAASGGIFTDYTMGWYRQAPGKERELVAAITWTGGSTYYADSVKGRFTISRDNAKNSVYLQMNSLKPEDTAVYYCAADEYWVNLDYWGQGTQVTVSS | low polyreactivity
4 | QVQLVESGGGLVQAGGSLRLSCAASGGIFTGNAMGWYRQAPGKERELVAAINRRTGSTYYADSVKGRFTISRDNAKNTVYLQMNSLKPEDTAVYYCATRRYRSYTYDYWGQGTQVTVSS | high polyreactivity
5 | QVQLVESGGGLVQAGGSLRLSCAASGGIFTKNAMGWYRQAPGKERELVAGISRTGGNTYYADSVKGRFTISRDNAKNTVYLQMNSLKPEDSAVYYCAAGRYYAVWQSISGFDSWGQGTQVTVSS | low polyreactivity
6 | QVQLVESGGGLVQAGGSLRLSCAASGGIFTKNAMGWYRQAPGKERELVAGISRTGGNTYYADSVKGRFTISRDNAKNTVYLQMNSLKPEDTAVYYCHWAKWYRYGGYRSRYDYWGQGTQVTVSS | low polyreactivity
7 | QVQLVESGGGLVQAGGSLRLSCAASGGIFTLYVMGWYRQAPGKERELVAAISRTGGSTYYADSVKGRFTISRDNAKNTVYLQMNSLKPEDTAVYFCAALYRGGTRYGGYDYWGQGTQVTVSS | high polyreactivity
8 | QVQLVESGGGLVQAGGSLRLSCAASGGIFTPYAMGWYRQAPGKERELVAAISRSGGSTYYADSVKGRFTISRDNAKNTVYLQMNSLKPEDTAVYYCNALFRALKAFSQYNYWGQGTQVTVSS | high polyreactivity
9 | QVQLVESGGGLVQAGGSLRLSCAASGGIFTQYAMGWSRQAPWKERELVAAITRSGGTYYADSVKGRFTISRDNAKNTVYLQMNSLKPEDTAVYYCAAEWIDAYYDYDYWGQGTQVTVSS | high polyreactivity
10 | QVQLVESGGGLVQAGGSLRLSCAASGGIFVSYAMGWSRQAPGKERELVARINTVDGTNYADSVKGRFTISRDNAKNTVYLQMNSLKPEDTAVYYCAVRSPVLASDYGYYFLRDYWGQGTQVTVSS | low polyreactivity
11 | QVQLVESGGGLVQAGGSLRLSCAASGGIFWFYAMGWYRQAPGKERELVASIRSSDGGTYYADSVKGRFTISRDNAKNTVYLQMNSLKPEDTAVYYCAADQTYERHWVYYWGQGTQVTVSS | low polyreactivity
12 | QVQLVESGGGLVQAGGSLRLSCAASGGIFWYNAMGWYRQAPGKERELVAAITWNGGRTYYADSVKGRFTISRDNAKNTVYLQMNSLKPEDTAVYYCAARSPVKRQSRKQYYYWGQGTQVTVSS | high polyreactivity
13 | QVQLVESGGGLVQAGGSLRLSCAASGGIFYDYAMGWYRQAPGKERELVAAITRSGDSTYYADSVKGRFTISRDNPKNTVYLQMNSLKPEDTAVYYCAADIWSSDYEEFYYWGQGTQVTVSS | low polyreactivity
14 | QVQLVESGGGLVQAGGSLRLSCAASGGIFYFYAMGWSRQAPGKERELVAAISSNGGRTYYADSVKGRFTISRDNAKNTVYLQMNSLKPEDTAVYYCNAVSRVSDRHLATYDYWGQGTQVTVSS | high polyreactivity
15 | QVQLVESGGGLVQAGGSLRLSCAASGGIFYLNAMGWYREAPGKERELVAAISSGVSTYYADSVKGRFTISRDNAKNTVYLQMNSLKPEDTAVYYCNADYNYPAWVGSWWDYDYWGQGTQVTVSS | low polyreactivity
16 | QVQLVESGGGLVQAGGSLRLSCAASGGIFYLYAMGWYRQAPGKERELVAAITWSADSTYYADSVKGRFTISRDNAKYTVYLQMNSLKPEDTAVYYCNADVAWQYWNGWSWDIYDYWGQGTQVTVSS | low polyreactivity
17 | QVQLVESGGGLVQAGGSLRLSCAASGGIFYTNAMGWYRQAPGKERELVAAIRKNGDSTNYADSVKGRFTISRDNAKYTVYLHMNSLKPEDTAVYYCNDELWPWAYDYWGQGTQVTVSS | low polyreactivity
18 | QVQLVESGGGLVQAGGSLRLSCAASGGIIAINAMGWYRQAPGKERELVAAISWGDGITYYADSVKGRFTISRDNAKNTVDLQMNSLKPEDTAVYYCNARLLSGPGYDYWGQGTQVTVSS | low polyreactivity
19 | QVQLVESGGGLVQAGGSLRLSCAASGGIIGWYAMGWYRQAPGKERELVAAINWSGADTYYADSVKGRFTISRDNAKNTVYLQMNSLKPEDTAVYYCAADGHKYRMDYWGQGTQVTVSS | low polyreactivity
20 | QVQLVESGGGLVQAGGSLRLSCAASGGIKRPYAMGWSRQAPRKERELVAAISYSGGSTYYADSVKGRFTISRDTAKISVYLLMNSLKTEDTAVYYCIAYRQCSNVLTTYEYWGKGTQVTVSS | high polyreactivity
21 | QVQLVESGGGLVQAGGSLRLSCAASGGILHYYAMGWYRQAPGKERELVAAISWSGGSTYYADSVKGRFTISRDNAKNTVYLQMNSLKPEDTAVYYCNKVGVAYIFGWMDYWGQGTQVTVSS | high polyreactivity
22 | QVQLVESGGGLVQAGGSLRLSCAASGGILSYNTMGWYRQAPGKERELVAAITSSGGRTYYADSVKGRFTISRDNAKNTVYLQMNSLKPEDTAVYYCNTVYYFTYYYWGQGTQVTVSS | high polyreactivity

Row | Sequence | polyreactivity (PSR sort gate)
23 | QVQLVESGGGLVQAGGSLRLSCAASGGILVFYAMGWYRQAPGKERELVAAINVSGGSTYYADSVKGRFTISRDNAKNTVYLQMNSLKPEDTAVYYCAALGPYLDYGVQYGYWGQGTQVTVSS | low polyreactivity
24 | QVQLVESGGGLVQAGGSLRLSCAASGGIVGYYAMGWYRQAPGKERELVAAISWSGGSTYYADSVKGRFTISRDNAKNTVYLQMNSLKPEDTAVYYCAASDSYGYDYWGQGTQVTVSS | high polyreactivity
25 | QVQLVESGGGLVQAGGSLRLSCAASGGIYRYYAMGWYRQAPGKERELVAAISTSGTDTYYADSVKGRFTISRDNAKNTVYVQMNSLIPEDTAVYYCAAELYRYGFYEPIYPYSYDYWGQGTQVTVSS | low polyreactivity
26 | QVQLVESGGGLVQAGGSLRLSCAASGGLFTLNAMGWYRQAPGKEREMVAGISWSGDRTYYADSVKGRFTISRDNAKNTVYLQMNSLKPEDTAVYYCAAYDYWGQGTQVTVSS | low polyreactivity
27 | QVQLVESGGGLVQAGGSLRLSCAASGGNFVFNAMGWYRQAPGKERELVAVITYSGGRTYYADSVKGRFTISRDNAKNTVYLQMNSLKPEDTAVYYCNARYGYPLGHSIYYYWGQGTQVTVSS | low polyreactivity
28 | QVQLVESGGGLVQAGGSLRLSCAASGGTFAGNAMGWYRQAPGKERELVAAISKSGAITYYADSVKGRFTISRDNAKNTVYLQMNSLKPEDTAVYYCAARYLSGTSRYYYWGQGTQVTVSS | high polyreactivity
29 | QVQLVESGGGLVQAGGSLRLSCAASGGTFAIYVKGWYRLAPGKERELVAAITRVGSTYADSVKGRFTISRDNAKNTVYLQMNSLKPEDTAVYYCAAVSGVRSGPWRYDYLGQGTQVTVSS | high polyreactivity
30 | QVQLVESGGGLVQAGGSLRLSCAASGGTFARNAMGWYRQAPGKERELVAAIRGGVSTNYADSVKGRFTISRDNAKNTVYLQMNSLKPEDTAVYYCNASPPTLEGYWGQGTQVTVSS | low polyreactivity
31 | QVQLVESGGGLVQAGGSLRLSCAASGGTFDSYAMGWYRQAPGKERELVAAITQSGGRTYYADSVKGRFTISRDNAKNTDYLQMNSLKPEDTAVYYCAAKGITRYGYWGQGTQVTVSS | high polyreactivity
32 | QVQLVESGGGLVQAGGSLRLSCAASGGTFERNAMGWYRPAPGKERELVAAITGSGGRTYYADSVKGRFTISRDNAKNTVYLQMNSLKPEDTAVYYCAAVPWWKYNYWGQGTQVTVSS | high polyreactivity
33 | QVQLVESGGGLVQAGGSLRLSCAASGGTFEYNAMGWYRPAPGKERELVAAISKSGGRTYYADSVKGRFTISRDNAKNTVYLQMNSLKPEDTAVYYCAKRYVWGQGTQVTVSS | high polyreactivity
34 | QVQLVESGGGLVQAGGSLRLSCAASGGTFFYNAMGRYRQAPGKERELVAAINGGTSTNYADSVKGRFTISRDNAKNTVYLQMNSLKPEDTAVYYCAAVYRRLGRYDWYDYWGQGTQVTVSS | low polyreactivity
35 | QVQLVESGGGLVQAGGSLRLSCAASGGTFGRNVMGWYRQAPGKERELVAAISIRGGSTYYADSVKGRCTISRDNAKNTVYLQMNSLKAEDTAVYYCARDYPTDAYDYWGQGTQVTVSS | low polyreactivity
36 | QVQLVESGGGLVQAGGSLRLSCAASGGTFGRYAMGWYRQAPGKERELVADINWSGGGTYYADSVKGRFTISRDNAKNTVYLQMNSLKPEDTAVYYCGARVVEIFHWAGDYWGQGTQVTVSS | low polyreactivity
37 | QVQLVESGGGLVQAGGSLRLSCAASGGTFHHYAMGWYRQAPGKERELVASITNGASTYYADSVKGRFTISRDNAKNTVYLQMNSLKPEDTAVYYCAKRCRVGKYRYEYWGQGTQVTVSS | low polyreactivity
38 | QVQLVESGGGLVQAGGSLRLSCAASGGTFHYYAMGWYRQAPGKERELVAAINRSGDSTYYADSVKGRFTISRDNAKNTVYLQMNSLKPEDTAVFYCAVSYYGADGNPFPHDYWGQGTQVTVSS | low polyreactivity
39 | QVQLVESGGGLVQAGGSLRLSCAASGGTFIANAMGWYRPAPGKERELVAAITSRGGNTYYADSVKGRFTISRDNAKNTVYLQMNSLKPEDTSVYYCAARNDKRRQYYVGQSAFDFWGQGTQVTVSS | low polyreactivity
40 | QVQLVESGGGLVQAGGSLRLSCAASGGTFKTNAMGWYRQAPGTERELVAAIRYSGGDTYYADSVKGRFTISRDNAKNTVYLLLKSLKPEDTAVYYCAADFTLLYDYWGQGTQVTVSS | low polyreactivity
41 | QVQLVESGGGLVQAGGSLRLSCAASGGTFKYYDMGWYRQAPGKEREFVAAISKRVSSTYYADSVKGRFTISRDNAKNTVYLQMNSLKPEDTAVYYCAAYPVRYYNQYDYWGQGTQVTVSS | low polyreactivity
42 | QVQLVESGGGLVQAGGSLRLSCAASGGTFLYYMGWYRQAPGKERELVAAITFSGGSTYYADSVKGRFTISRDNAKNTVYLQMNSLKPEDTAVYYCAAGWYDWPKYLLSVYTYYLYDSWGQGTQVTVSS | low polyreactivity
43 | QVQLVESGGGLVQAGGSLRLSCAASGGTFMYYDMGWYRQAPGKERELVAAISSGSSTYYADSVKGRFTISRDNAKNTVYLQMNRLKQEDTAVYYCAKLHYAHYWGQGTQVTVSS | low polyreactivity
